The results in this text go back to paper PMC6366758.

In general, Kd refers to the free concentration of one partner at which half of the binding sites on the other are occupied at equilibrium, for simple one-to-one binding. A higher Kd goes with a looser complex. As usually defined, the koff is the rate constant with which the complex falls apart. A high value points to a short-lived complex. By stoichiometry N is commonly meant a count of units in the complex or per binding partner.

Test [1] deals with RSV F glycoprotein nanoparticles (human respiratory syncytial virus A2 (RSV/A2)).
Test [2] deals with Post-fusion F (human respiratory syncytial virus A2 (RSV/A2)). In words: SPR. (Surface plasmon resonance follows binding to a sensor surface in real time, without labels.)
Test [3] deals with RSV F710 post-fusion (human respiratory syncytial virus A2 (RSV/A2) | bacteriophage T4). In words: cryo-EM structure; single particle cryo-EM of the purified RSV F710-R4.C6 Fab complex on graphene oxide grids; C3 symmetry; overall 3.9 A.

In test [1], Motavizumab (antibody) displayed an RSV/A Long neutralization (IC50), micro-neutralization assay on HEp-2 cells of 0.0208 µg/mL.
In test [2], Palivizumab displayed a Kd of 0.34 nM and a koff of 5.79e-05 s⁻¹.
Turning to RSV F710 post-fusion, the stoichiometry N in test [3] is 3.
